Measured values taken from the RNAGym collection of RNA variant scans (doi:10.7554/elife.80360).

B1: HDV Ribozyme (parent)
chain: GGCCGGCAUGGUCCCAGCCUCCUCGCUGGCGCCGGCUGGGCAACAUUCCGAGGGGACCGUCCCCUCGGUAAUGGCGAAUGGGACCCA

Variants of: B1
Assay: self-cleavage, relative activity (ratio to wild type); higher = more cleavage; co-transcriptional

Point of comparison: GGCCGGCAUGGUCCCAGCCUCCUCGCUGGCGCCGGCUGGGCAAUAUUCCGAGGGGACCGUCCCCUCGGUAAUGGCGAAUGGGACCAA [C44U C86A], self-cleavage 0.716. Against it:
- GGCCGGCAUGGUUCCAGCCUCCUCGCCGGCGCCGGCUGGGCAACAUUCCGAGGGGACCGUCCCCUCGGUAAUGGCGAAUGGGACCCA [C13U U27C] — lower, 0.615
- GGCCGGCAUGGUCCCAGCCUCCUCGCAGGCGCCGGCUGGGCAACAUUCCGAGGGGACCGUCCCCUCGGUAAAGGCGAAUGGGACCCA [U27A U72A] — lower, 0.266
- GUCCGGCAUGGUCCCAGCCUCCUCGCUGGCGCCGGCUGGGCAACAUUGCGAGGGGACCGUCCCCUCGGUAAUGGCGAAUGGGACCCA [G2U C48G] — lower, 0.0615
- GGCCGGCAUGGUCCCAGCCUCCUCGCUGGCGCCGGCUGGGCAACAUUCCGAGUGGACCGUCCCCUCGGUAAGGGCGAAUGGGACCCA [G53U U72G] — lower, 0.554
- GGCCGGCAUGGUCCCAGCCUCCUCGCUGGCGCGGGCUGGGCAACAUUCCGAGGGGACCGUCCCCUCGGUAAUGGCGUAUGGGACCCA [C33G A77U] — lower, 0.106
- GCCCGGCAUGGUCCCAGCCUCCUCGCUGGAGCCGGCUGGGCAACAUUCCGAGGGGACCGUCCCCUCGGUAAUGGCGAAUGGGACCCA [G2C C30A] — lower, 0.0875
- GGCCGGCAUGGUCCCAGCCUCCUCGCUGGCGCCGGCUGGGCAACAUUCCGAGGGGACCGUCCCCUCGGGAAUGGCGAAUAGGACCCA [U69G G80A] — lower, 0.233
- GGCCGGCAUGGUCCCAGCCUCCUCGCUGGCGCCGGCUGGGCAACAUUCCGAGGGGACCGUCCCCUCGGUCAUGGCCAAUGGGACCCA [A70C G76C] — higher, 0.796
- GGCCGGCAUGGUCCCAGCCUCCUCGCUGGCGCCGGCUGGGCAACAUUCCGAGGGGACCGUCCCCUCGGUAAUGGCGACUGGGAACCA [A78C C84A] — lower, 0.156
- GGCCGGCAUGCUCCCAGCCUCCUCGCUGGCGCCGGCUGGGCAACAUUCCGAGGGGAGCGUCCCCUCGGUAAUGGCGAAUGGGACCCA [G11C C57G] — lower, 0.249
- GGCCGGCAUGGUCCUAGCCUCCUCGCUGGCGCCGGCUGGGCAACAUUCCGAGGGGACCGUCCCCCCGGUAAUGGCGAAUGGGACCCA [C15U U65C] — lower, 0.674
- GGCCGGCAUGGUCCCAGCCUCCACGCUGGCGCCGGCUGGGCAACAAUCCGAGGGGACCGUCCCCUCGGUAAUGGCGAAUGGGACCCA [U23A U46A] — lower, 0.623
- GGCCGGCAUGGUACCAGCCUCCUCGCUGGCGCCGGCUGGGCAACAUUCCGAGGGGACCGUCCCCUCGGUAAUGGCGAAUGGAACCCA [C13A G82A] — lower, 0.264
- GGCCGGCUUGGUCUCAGCCUCCUCGCUGGCGCCGGCUGGGCAACAUUCCGAGGGGACCGUCCCCUCGGUAAUGGCGAAUGGGACCCA [A8U C14U] — higher, 0.864
- GGCCGGCAUGGUCCCAGCCUCCUCGCUGGCGCCGGCUGGGCAACAUUCCGAGGGGACCGUCCCGUCGGUAAUGCCGAAUGGGACCCA [C64G G74C] — lower, 0.244
- GACCGGCAUGGUCCCAGCCUCCUCGCUGGCGCCGGCUGGGCAACAUUCCGAGGGGACCGUCCCCUCGGGAAUGGCGAAUGGGACCCA [G2A U69G] — lower, 0.219
- GGCAGGCAUGGUCCCAGCCUCCUCGCUGGCGCCGGGUGGGCAACAUUCCGAGGGGACCGUCCCCUCGGUAAUGGCGAAUGGGACCCA [C4A C36G] — lower, 0.0875
- GGCCGGCGUGGUCCCAGCCUCCUCGCUGGCGCCGGCUGGGCAACAUUCCGAGGGGACCGUCCCCUCGGCAAUGGCGAAUGGGACCCA [A8G U69C] — higher, 1.16
- GGCCGGCAUGUUCCCAGCCUCCUCGCUGGCGCCGGCUGGGCAACAUUCCGAGGGGACCGUCCCCUCGGUAAUGGCGGAUGGGACCCA [G11U A77G] — lower, 0.283
- GGCCGGCAUGGUCCCAGCCUCCUAGCUGGCGCCGGCUGGGCAACAUUCCGAGGGGACCGUCCUCUCGGUAAUGGCGAAUGGGACCCA [C24A C63U] — lower, 0.692
- GGCCGGCAUGGUCCCAGCCUCCUCGCUGGCGCCGGCUGCGCAACAUUCCGAGGGGACCGUCCACUCGGUAAUGGCGAAUGGGACCCA [G39C C63A] — lower, 0.259
- GGCCGGCAUGGUCCCAGCCUCCUCGCUGACGCCGGCUGGGCAACAUUCCGAGGGGACCGUCACCUCGGUAAUGGCGAAUGGGACCCA [G29A C62A] — lower, 0.391
- GGCCGGCAUGGUCCCAGCCUCCUCGCUGGCGCCGGCUGGGCAUCAUUCCGAGGGGACCGUCCCCUCGGUAAUGGUGAAUGGGACCCA [A43U C75U] — lower, 0.128
- GGCCGGCAUGGUCCCAGCCUCCUCGCUGGCGCCGGCUGGGCAACAUUCCGAGGGGACCGUCCCCUCGGUAAUGGCGAAUGGGAGCCU [C84G A87U] — higher, 0.842
- GGCCGGCCUGGUCCCAGCCUCCUCGCUGGCGCCGGCUGGGCAACAUUCCGAGGGGACCGUCACCUCGGUAAUGGCGAAUGGGACCCA [A8C C62A] — higher, 0.918
- GGCCGGCAUGGUCCCAGCCUCCUCGCUGGCGCCGGCUGGGCAACAUUCCGAGGGGACCGUCCCCUGGGGAAUGGCGAAUGGGACCCA [C66G U69G] — higher, 1.18
- GGCCGGCAUGGUCCCAGCCUCCUCGCUGGCGCCGGCUGGGCAACAUUCCGAGGGGACCCUCCCCUCGGUUAUGGCGAAUGGGACCCA [G59C A70U] — higher, 1.03
- GGCCGGCAUGGUCCCAGCCUCCUCGCUGGCGCCGGCUGGGCAACAUUCCGAGGGGACCGUCCACUCGGUAAUGGUGAAUGGGACCCA [C63A C75U] — lower, 0.0906
- GGCCGGCAUGGUCCCAGCCUCCUCGUUGGCGCCGGCUGGGCAACAUUCCGAGGGGACCGUCCCCUCGGUAACGGCGAAUGGGACCCA [C26U U72C] — higher, 0.906
- GGCCGGCAUGGUCUCAGCCUCCUCGCUGGCGCCGGCUGGGCAACAUUCCGAGGGGACCGUCCCCACGGUAAUGGCGAAUGGGACCCA [C14U U65A] — higher, 1.22
- GGCCGGCAUGGUCCCAGCCUCCUCGCUGGCGCCGGCUGGGCAACAUUCCGGGGGGACCGUCCCCUCGGUUAUGGCGAAUGGGACCCA [A51G A70U] — higher, 1.22
